In the DeepSol protein solubility set:

Experiment: soluble on expression in E. coli; label from the status in PepcDB or PDB records
In the case of “MSLCGIVAFYYPEINDKQAAIGKMMATIQHRGPSSDGMYTNDKVALGFRRLSIIDLRCGSQPIYNEDRSRAIIFNGEIYNFKPLREELIKAGHTFSTKADTEVILHGYEEWGMDGILKRVRGMFAFIIWDDNTQTMYGARDFFGIKPMYYQDVDGHLLVGSELKSFLAFPHFKKELNTEAVKPYLMNQYNDLKETFFKGVYRFQPGHWFEYKDGKMKTHQYWDAEYKDNNLSFEETVKKINEDLKETVDLYRNADVKVGAFLSEGVDSSFLTALLDPDEVFSIGFDDNTYDEASKAKALADINGWHFYADKVYSEEAMRDFPEMQYHMDEPDANPSIIPLWYLCKLARKHVTVALSGEGADELFAGYVNYGMHTHNNVIKVFTDKLKKLPKGKRVKLAHKIKKMPNFPGKVHLYTNLAEPSEFYVGQSVIYDMDYPTIFTSKDANAVLQPSYRNKLTVNGNYQEDFKKVKDLDNVKQMQYIDLHHFMLNDIEQKADKISMAHSLELRVPYLDVKIAKLANSIPSKYLVNKYDTKYALRKASEQVLPDEWAKRPKLGFPTPIKQWLQEERFYKQVRDLFSEDFVNDIFEQKKILDLLDENYNGDGSHRRQIWVIYTFLVWYKLFFVDYEEGHHHHHH”, the “soluble on expression in E. coli” value is reported as “soluble”.
In the case of “MTPKRALISLTSYHGPFYKDGAKTGVFVVEILRSFDTFEKHGFEVDFVSETGGFGWDEHYLPKSFIGGEDKMNFETKNSAFNKALARIKTANEVNASDYKVFFASAGHGALFDYPKAKNLQDIASKIYANGGVIAAICHGPLLFDGLIDIKTTRPLIEGKAITGFPLEGEIALGVDDILRSRKLTTVERVANKNGAKYLAPIHPWDDYSITDGKLVTGVNANSSYSTTIRAINALYSVEHHHHH”, the “soluble on expression in E. coli” value is reported as “soluble”.
For “MFEVPITLTNRKFAQRRKLKYQYINYISRRFDRISKKSTTTDSLPTPENSAAENNDEEEGQNSEAGTYRRSVLQQKKRRRERHWRSVVGEIYSTTESETDSQEEETEEGGEHDTGIDKEDSDEERKFWKKYEKPEKSFEIWRTVSSQNKQPINKQKMTYHNFKKIEKIPLRKMEIPLLHCTKENKLYFQSISRGLEPLKTSTSEVRNYRTRHIVTLTDLLHLNVSRHNWSLAYKIFATLIRIPGVQIKSLWGIGVEILDNLSNSSSGLDFLQWMCQIYSSKSRFVQNINYRSIVPPFQTGSRTHTAKFAITYLWSSLINCQKSMEPSSNIIDKPFDTENDLLQELIDKISEWVLTPPFMEDAEVWFIYASCHLLKADTLSRQFVNDNKNNDLIGLDRDIKINQVIKHIHYVRTFLKICLDKGGFAVPSRLIENQLKSFESRLYGEAQDIQERDVANVYDSIDNSSVENSFGDVYETNAEFLDTQLMDLSPEDNGLDEMHYSDEDSSE”, the “soluble on expression in E. coli” value was “not soluble”.
For “MSTFKPLKTLTSRRQVLKAGLAALTLSGMSQAIAKDELLKTSNGHSKPKAKKSGGKRVVVLDPGHGGIDTGAIGRNGSKEKHVVLAIAKNVRSILRNHGIDARLTRSGDTFIPLYDRVEIAHKHGADLFMSIHADGFTNPKAAGASVFALSNRGASSAMAKYLSERENRADEVAGKKATDKDHLLQQVLFDLVQTDTIKNSLTLGSHILKKIKPVHKLHSRNTEQAAFVVLKSPSVPSVLVETSFITNPEEERLLGTAAFRQKIATAIAEGVISYFHWFDNQKAHSKKR”, the “soluble on expression in E. coli” value was “soluble”.
In the case of “MSLIVSTIASHSSLQILLGAKKEGFKTRLYVSPKRRPFYSSLPIVDDLVVAEEMTSILNDDGIVVPHGSFVAYLGIEAIEKAKARFFGNRRFLKWETTFELQDKALEGAGIPRVEVVEPEDAKPDELYFVRIEGPRGGSGHFIVEGSELEERLSTLEEPYRVERFIPGVYLYVHFFYSPILERLELLGVDERVLIADGNARWPVKPLPYTIVGNRAIALRESLLPQLYDYGLAFVRTMRELEPPGVIGPFALHFAYDGSFKAIGIASRIDGGSNADHWYSELYWGERLSMGRRIARELRLAEEEDRLEEVVTEGHHHHHH”, the “soluble on expression in E. coli” value is reported as “soluble”.
For “MASRGKTETSKLKQNLEEQLDRLMQQLQDLEECREELDTDEYEETKKETLEQLSEFNDSLKKIMSGNMTLVDELSGMQLAIQAAISQAFKTPEVIRLFAKKQPGQLRTRLAEMDRDLMVGKLERDLYTQQKVEILTALRKLGEKLTADDEAFLSANAGAILSQFEKVSTDLGSGDKILALASFEVEKTKK”, the “soluble on expression in E. coli” value was “not soluble”.
In the case of “MFFQSIYQMMSAGTDLNINIRRTDGKLSVAVIPKRTTLKDEAGQAIVPLILNGTPMELDGQFLQIITTPLQKAQGILTNLETFEQQARLAATQGKAAGTANDKKTKEAREKQEKMEKLLKRAEEAFTAGRYSEATTCFRQAKVLADTDRQKQIEARIQEVQKESSQGCLFPETDTQPLPQQPPANGTANGNRPDGQMRMFTSQPPQQPVQQAIPQPVQQPVPRPQIVQPQPVPQYYPGTPQPQPMYEGYCRNPANGSPQQTAEQPQTYFLQPGGQYPQTQPWQQPQPVPLQPQATVIQTTRENTGREYQSPPQPAAEALTFDKDDESDRELLREDPYAEYIDFPQECRMKDETQAELICC”, the “soluble on expression in E. coli” value is reported as “not soluble”.
In the case of “MTEAMKITLSTQPADARWGEKATYSINNDGITLHLNGADDLGLIQRAARKIDGLGIKHVQLSGEGWDADRCWAFWQGYKAPKGTRKVVWPDLDDAQRQELDNRLMIIDWVRDTINAPAEELGPSQLAQRAVDLISNVAGDRVTYRITKGEDLREQGYMGLHTVGRGSERSPVLLALDYNPTGDKEAPVYACLVGKGITFDSGGYSIKQTAFMDSMKSDMGGAATVTGALAFAITRGLNKRVKLFLCCADNLISGNAFKLGDIITYRNGKKVEVMNTDAEGRLVLADGLIDASAQKPEMIIDAATLTGAAKTALGNDYHALFSFDDALAGRLLASAAQENEPFWRLPLAEFHRSQLPSNFAELNNTGSAAYPAGASTAAGFLSHFVENYQQGWLHIDCSATYRKAPVEQWSAGATGLGVRTIANLLTA”, the “soluble on expression in E. coli” value is reported as “soluble”.
With “QDLTVKMTDLQTGKPVGTIELSQNKYGVGFIPELADLTPGMHGFHIHQNGSCASSEKDGKVVLGGAAGGHYDPEHTNKHGFPWTDDNHKGDLPALFVSANGLATNPVLAPRLTLKELKGHAIMIHAGGDNHSDMPKALGGGGARVACGVIQ” the “soluble on expression in E. coli” value was “soluble”.
For “MDRNLVQKGDAPPSKRSDPGTEFCVDIVVKGRKTEVPERFRKHVAEKLKLEKIQKLDGKVISLDVEVSKEPNPRQADRCDRVEITLRSRGPVIRAEAAASDPYAALDLAAEKLGARLRKQHDKRFSRRGARRISAAEVADHVPGAATLNGNGDVVPTEKQDGVPTKKIGSLEVQGDGPLVVREKTHVAAPMSLDQALYEMELVGHDFYLFVDSETKEPSVVYRRHAYDYGVIHLTTDTMVTQAHAPDAGDALGGLEHHHHHH”, the “soluble on expression in E. coli” value was “not soluble”.
For “MFVELNNLLNTTPDRAEQGKLTLLCDAKTDGSFLVHHFLSFYLKANCKVCFVALIQSFSHYSIVGQKLGVSLTMARERGQLVFLEGLKSAVDVVFQAQKEPHPLQFLREANAGNLKPLFEFVREALKPVDSGEARWTYPVLLVDDLSVLLSLGMGAVAVLDFIHYCRATVCWELKGNMVVLVHDSGDAEDEENDILLNGLSHQSHLILRAEGLATGFCRDVHGQLRILWRRPSQPAVHRDQSFTYQYKIQDKSVSFFCQRNVSCCSVT”, the “soluble on expression in E. coli” value was “soluble”.
For “NEIVSGKLRIAASASFGAALLSQTLIEFRLQHPQVSVEVIFTEAPLDLIEAGFDIAFYFTDTPPEGYVGHQLRTLHCKPIAHRSYLADKPNVSTPEDLGDLEHILYKSRDLVLDKWTFTHKQTQQQCRIELESTLSFNLVQSMLDATLAGCGVAMLDEFALAKLESAQKEQLVSLLPDWQTDAILPLYLLYPKREHLPRRTRAFIDHFRNIYSVGE”, the “soluble on expression in E. coli” value was “not soluble”.
For “MSLEKKNASTDEKGYYSNKISLEDLNKNIEDKKEQTIYFYQTSCVHCQKVSPIVVPLAKDLNVDMKVIDIENLNEPWDKYNIQGTPTIIHFKDGKEVSRISGEQSKDKFKEWFEQTKKEGHHHHHH”, the “soluble on expression in E. coli” value was “not soluble”.
In the case of “MGSDKIHHHHHHMYLIRKKYITSLENILKKEGVIVDALSNDATIRYRSEEIGDEFTSVYNIQKLLNIAYASQGKESFGLLSYEYFHPGDYDIVNYIMMSSDNLLHALECLCRFSRLLYSGCQLTLDKKNTNTYCIGFTYLYPQDKNKEITRQFHELTVASLLAYCQWLTAANFTHFSSMEFSYPQPYGIRKYETLFACPMTFGTHRNCVYLNAEILLMPLVTSNASLFKLHEKHATCLIDILFNKTIKSRVRDSINKKLETGSCNIHSVASDLFMTPRTLQRRLEEEGAYFKDILEDVKMNLAEYYLIYSQYSLSQVAELVGYKDLSSFHRACLRWFRSSPGFFRERGCKKACLPMK”, the “soluble on expression in E. coli” value is reported as “not soluble”.
For “AKTAAALHILVKEEKLALDLLEQIKNGADFGKLAKKHSICPSGKRGGDLGEFRQGQMVPAFDKVVFSCPVLEPTGPLHTQFGYHIIKVLYRN”, the “soluble on expression in E. coli” value was “soluble”.
In the case of “MKKTQSEPDQEAIRKIEELSQDLIEGLESYGARLLSVYAHGGILFSEQSEFLHQLVGGRRERIPLTFGTIASTIYSDRVIFGKETIEIRHESNERFAGMFGWKEYPSKTRPGMTDGLLTAPFEFILTQSFVFKSKAAASVIMGRKQNQMINAADRASSQIEALDEALDDLESNRFVLGEHHLSLAVFANHPKALAEYLSKARAHLTNGGAVIAREDLGLEAAWWAQLPGNFSYRARSGAITSRNFAALSPFHSFPIGKLEGNVWGTAVALLKTQAGSPYYFNFHYGDLGNTFVCGPSGSGKTVIVNFLLAQLQKHNPTMVFFDKDQGAEIFVRAGGGKYKPLKNGQPTGIAPLKGMEYTEKNKVFLRNWVLKLVTAEGQTVTEEERQDIAKAIDALGNLPHAQRSLSALQLFFDNTSKEGIAIRLQRWLKGNDLGWVFDNDQDDLNLDSQFIGYDMTDFLDNEEIRRPLMMYLFNRILDLIDGRRIIIVIDEFWKALEDDSFKAFAQDRLKTIRKQNGMMLFATQSPKDALNSTIAHTIIEQCPTQIFFPNQKANYKDYVEDFKLTEREFELIQSELSRESRRFLIKQGQSSVVAELNLRGMNDEIAVLSGTTKNIELVNQIISEYGADPDIWLPIFHQRRENQLEHHHHHH”, the “soluble on expression in E. coli” value is reported as “soluble”.
For “MPTTVNDLLRTYPADLGGVDREAMARCIEECLRCAQACTACADACLSEPTVADLTKCIRTDMDCADVCTATAAVLSRHTGYDANVTRAVLQACATVCAACGDECARHAGMHEHCRVCAEACRSCEQACQELLAGLGLEHHHHHH”, the “soluble on expression in E. coli” value was “not soluble”.
With “MEASKYVGQGFQPPAEKDAVEFAKKHKDKIAKRGEQFFMDNFGLKVKATNVVGSGDGVEVFVHCDDHDIVFNASIPFDKSIIDSDSSLRSEDKGDDMSTLVGTVLSGFEYRAQKEKYDNLYKFFKENEKKYQYTGFTKEAINKTQNSGYENEYFYIVANIPTLQEYRKYYEPLIKKNNLNFKKGMKQARKGVGYKAAIEVHTTLFSRSSNFSKDKKLDDVIDLSESTKKLHLNFENTKIFLQLAKSTISTNRVNYSDNESIRIEVELEHHHHHH” the “soluble on expression in E. coli” value was “not soluble”.
For “MSQIISTLNNIDLVTQDKVNLISNMQIQAKYENAEYKSFIDQLIDNLNTTRSIDIYNLFLSLNSEICLNLDTVDNISKIISSYLSILNTNFTRISPSESKQKNQLAEKGINKFLVTMDANFAQMQNQDKLLPNNIDSIIEIVQEVIIFFEKNNLNYNSDFKIQLNKTLRKIKSSLILKDQKNDTYSDKESINQVEATITDQKTIQGSEKWKTLIEKIEVLKALVESERIFETSIVYNDIQNLLVNFDPKEYFPEIFFPLYKKIAPFIGNIHKNIDYYSSSIQWSIAQKMYNIDYKSFLDTLEKMPENNFLNSSSDITKNFFYETSSEVEKTPIEEHKIIADTDAIKEEIVIKQRTNNKKNQNDPVEKISNKIDEDYFEDLFDI”, the “soluble on expression in E. coli” value was “not soluble”.
